Source: the supplement of paper PMC9732359
± gives the uncertainty stated by the source.

Test: protein stability index of a GFP-peptide fusion (yeast GPS) (PSI 1-4); higher = more stable; sorted into four equal gates, so the index is relative within each strain
Procedure, shortened: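 Peptides tiling yeast proteins in 17-residue segments were fused downstream of GFP, with Cherry expressed from the same plasmid. As a pooled library in yeast, mid-log cultures grown in leucine-free medium were sorted into four equal gates by GFP/Cherry fluorescence ratio. Gate plasmids were PCR-amplified and Illumina-sequenced, and barcodes linked reads to strains. Each peptide received a protein stability index equal to the sum of each gate's read frequency times its gate number.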

KVWLDPNETSEIAQANS [RPL19A]
protein stability index (doa10∆): 3.16 ± 0.23 | protein stability index (pdr5∆): 3.69 ± 0.24 | protein stability index (ubr1∆): 3.04 ± 0.29

PSQTLFSISYKPPTQKT [SRP21]
protein stability index (doa10∆): 2.23 ± 0.036 | protein stability index (pdr5∆): 2.2 ± 0.039 | protein stability index (san1∆): 1.97 ± 0.056 | protein stability index (ubr1∆): 2.1 ± 0.032

VLLHGASLGIGLAAMGS [RPN2]
protein stability index (doa10∆): 1.82 ± 0.071 | protein stability index (pdr5∆): 1.9 ± 0.069 | protein stability index (san1∆): 1.93 ± 0.072 | protein stability index (ubr1∆): 1.56 ± 0.065

DKFSPEDGLGPLMAKSV [ARP7]
protein stability index (doa10∆): 3.02 ± 0.11 | protein stability index (pdr5∆): 3.06 ± 0.11 | protein stability index (san1∆): 2.66 ± 0.13 | protein stability index (ubr1∆): 3.39 ± 0.097

LSLKRTLTDILEDELYH [RPN4]
protein stability index (doa10∆): 3.11 ± 0.1 | protein stability index (pdr5∆): 3.52 ± 0.11 | protein stability index (san1∆): 3.47 ± 0.11 | protein stability index (ubr1∆): 3.15 ± 0.11

IDEIDAIGTKRYDSNSG [RPT2]
protein stability index (pdr5∆): 2.26 ± 0.14 | protein stability index (san1∆): 2.36 ± 0.087 | protein stability index (ubr1∆): 2.92 ± 0.19

PKASSAKFFLNVSDEQL [ITC1]
protein stability index (doa10∆): 3.1 ± 0.094 | protein stability index (pdr5∆): 3.18 ± 0.055 | protein stability index (san1∆): 3.17 ± 0.063 | protein stability index (ubr1∆): 3.23 ± 0.075

NAARKAEASGEAAEEAE [RPS9B]
protein stability index (doa10∆): 3.81 ± 0.29 | protein stability index (pdr5∆): 3.39 ± 0.24 | protein stability index (ubr1∆): 2.89 ± 0.28

LKGIQEFGADWYKVAKN [SWI3]
protein stability index (doa10∆): 3.25 ± 0.071 | protein stability index (pdr5∆): 3.34 ± 0.072 | protein stability index (san1∆): 3.37 ± 0.043 | protein stability index (ubr1∆): 3.34 ± 0.057

EETSHLLTVTPGPRLLY [RPN10]
protein stability index (doa10∆): 2.61 ± 0.06 | protein stability index (pdr5∆): 2.69 ± 0.074 | protein stability index (san1∆): 2.54 ± 0.091 | protein stability index (ubr1∆): 3.06 ± 0.057

KNATDLQQAKLRESEIS [SMC3]
protein stability index (doa10∆): 3.17 ± 0.073 | protein stability index (pdr5∆): 3.15 ± 0.071 | protein stability index (san1∆): 3.11 ± 0.085 | protein stability index (ubr1∆): 2.97 ± 0.068

FDVVLTTFEYIIKERAL [SNF2]
protein stability index (doa10∆): 2.12 ± 0.067 | protein stability index (pdr5∆): 2.36 ± 0.071 | protein stability index (san1∆): 2.05 ± 0.088 | protein stability index (ubr1∆): 2.14 ± 0.071

SKQNGIEQSITKNIPIT [SSN8]
protein stability index (doa10∆): 2.63 ± 0.082 | protein stability index (pdr5∆): 2.67 ± 0.069 | protein stability index (san1∆): 2.66 ± 0.079 | protein stability index (ubr1∆): 2.84 ± 0.068

LGSSEAENLLQLKTGLA [YGL172W/NUP49]
protein stability index (pdr5∆): 3.29 ± 0.18 | protein stability index (san1∆): 2.98 ± 0.085 | protein stability index (ubr1∆): 2.5 ± 0.2

ARDEILPLRLQFNEFIQ [PGD1]
protein stability index (doa10∆): 2.55 ± 0.083 | protein stability index (pdr5∆): 3.01 ± 0.065 | protein stability index (san1∆): 2.74 ± 0.078 | protein stability index (ubr1∆): 2.79 ± 0.058

TQYKAGKASLFAQGKRR [RPL42A]
protein stability index (doa10∆): 3.35 ± 0.089 | protein stability index (pdr5∆): 3.04 ± 0.07 | protein stability index (san1∆): 3.1 ± 0.097 | protein stability index (ubr1∆): 3.14 ± 0.1

SSLVRRNSVKLLSKLLL [YCS4]
protein stability index (doa10∆): 1.68 ± 0.047 | protein stability index (pdr5∆): 1.61 ± 0.04 | protein stability index (san1∆): 1.64 ± 0.085 | protein stability index (ubr1∆): 1.39 ± 0.027

LEQMELSILKGDYSQAT [RPN5]
protein stability index (doa10∆): 2.86 ± 0.079 | protein stability index (pdr5∆): 2.91 ± 0.068 | protein stability index (san1∆): 2.94 ± 0.11 | protein stability index (ubr1∆): 2.64 ± 0.062

KNDTKILVLALEDLKDV [PRP8]
protein stability index (doa10∆): 1.6 ± 0.1 | protein stability index (pdr5∆): 1.96 ± 0.099 | protein stability index (san1∆): 1.55 ± 0.11 | protein stability index (ubr1∆): 1.73 ± 0.055

NTGLLNKANIQALIHGL [RPN11]
protein stability index (doa10∆): 3.02 ± 0.14 | protein stability index (pdr5∆): 2.88 ± 0.15 | protein stability index (san1∆): 2.09 ± 0.28 | protein stability index (ubr1∆): 2.67 ± 0.16

TEFEFYLLEELESYLIV [SSN8]
protein stability index (doa10∆): 2.63 ± 0.099 | protein stability index (pdr5∆): 2.72 ± 0.087 | protein stability index (san1∆): 3.21 ± 0.12 | protein stability index (ubr1∆): 2.72 ± 0.064

QQQQTSPPPQTHQSPPP [SNF5]
protein stability index (doa10∆): 2.883 ± 0.018 | protein stability index (pdr5∆): 2.878 ± 0.016 | protein stability index (san1∆): 2.88 ± 0.016 | protein stability index (ubr1∆): 2.901 ± 0.014

ASSAAAGAAGAAAGGDA [RPP2B]
protein stability index (doa10∆): 2.87 ± 0.11 | protein stability index (pdr5∆): 3.02 ± 0.084 | protein stability index (san1∆): 3.21 ± 0.071 | protein stability index (ubr1∆): 2.87 ± 0.095

LLTAKHGMTLRESFEDN [RPO21]
protein stability index (doa10∆): 2.96 ± 0.13 | protein stability index (pdr5∆): 2.56 ± 0.087 | protein stability index (san1∆): 2.6 ± 0.086 | protein stability index (ubr1∆): 1.55 ± 0.092

ERESSGAKDAEKSGISK [RPC17]
protein stability index (doa10∆): 2.91 ± 0.18 | protein stability index (pdr5∆): 3.4 ± 0.3 | protein stability index (ubr1∆): 3.64 ± 0.16

PVLSTIAFLVGLVNPKT [SWI3]
protein stability index (doa10∆): 2.98 ± 0.085 | protein stability index (pdr5∆): 2.52 ± 0.058 | protein stability index (san1∆): 2.33 ± 0.066 | protein stability index (ubr1∆): 2.86 ± 0.042

KQNPGLMQNMMNMFGGG [SRP54]
protein stability index (doa10∆): 2.05 ± 0.086 | protein stability index (pdr5∆): 2.36 ± 0.049 | protein stability index (san1∆): 2.37 ± 0.088 | protein stability index (ubr1∆): 1.8 ± 0.042

ENLNRNWRGREHWKVRN [BRN1]
protein stability index (doa10∆): 3.57 ± 0.11 | protein stability index (pdr5∆): 3.33 ± 0.14 | protein stability index (san1∆): 3.37 ± 0.063 | protein stability index (ubr1∆): 3.5 ± 0.08

TISKESTPDQRKRVYNI [ESC2]
protein stability index (doa10∆): 2.92 ± 0.15 | protein stability index (pdr5∆): 3.16 ± 0.24 | protein stability index (san1∆): 3.11 ± 0.17 | protein stability index (ubr1∆): 3.01 ± 0.099

YLFHNDRIIHTWRTQLA [ECM29]
protein stability index (doa10∆): 1.55 ± 0.05 | protein stability index (pdr5∆): 1.77 ± 0.042 | protein stability index (san1∆): 1.47 ± 0.064 | protein stability index (ubr1∆): 1.91 ± 0.039

IQHVGMINGRKLIKFET [FAS1]
protein stability index (doa10∆): 2.82 ± 0.072 | protein stability index (pdr5∆): 2.85 ± 0.074 | protein stability index (san1∆): 3.05 ± 0.085 | protein stability index (ubr1∆): 2.81 ± 0.041

PVPSDSTRKKGGRRGRR [RPS14B]
protein stability index (doa10∆): 3.22 ± 0.092 | protein stability index (pdr5∆): 3.45 ± 0.074 | protein stability index (san1∆): 3.31 ± 0.069 | protein stability index (ubr1∆): 3.27 ± 0.071

LSNFNADINLEESIRES [SIR3]
protein stability index (doa10∆): 3.16 ± 0.12 | protein stability index (pdr5∆): 2.95 ± 0.12 | protein stability index (san1∆): 2.75 ± 0.24 | protein stability index (ubr1∆): 3.4 ± 0.094

VGKRVPIVEDRRVKQLD [SIR4]
protein stability index (ubr1∆): 3.35 ± 0.26

GSTTIEKKNDENSTSNS [YLR335W/NUP2]
protein stability index (doa10∆): 3.1 ± 0.085 | protein stability index (pdr5∆): 3.18 ± 0.097 | protein stability index (san1∆): 3.18 ± 0.06 | protein stability index (ubr1∆): 3.17 ± 0.044

FLKKNIIKENVKVARLA [FAS1]
protein stability index (pdr5∆): 1.56 ± 0.26

EAKSFQDEAELVEEKTP [RPC82]
protein stability index (doa10∆): 3.53 ± 0.12 | protein stability index (pdr5∆): 3.46 ± 0.14 | protein stability index (san1∆): 3.51 ± 0.14 | protein stability index (ubr1∆): 3.5 ± 0.1

KILPTDIQLKNLFPLKP [SRP68]
protein stability index (doa10∆): 2.41 ± 0.059 | protein stability index (pdr5∆): 2.63 ± 0.046 | protein stability index (san1∆): 2.55 ± 0.043 | protein stability index (ubr1∆): 2.53 ± 0.059

WLKNKFAEENITHKLTK [BRR2]
protein stability index (doa10∆): 3.13 ± 0.085 | protein stability index (pdr5∆): 3.03 ± 0.06 | protein stability index (san1∆): 2.85 ± 0.047 | protein stability index (ubr1∆): 3.01 ± 0.078

SYKRIYGEYPPTKLLVS [PRE8]
protein stability index (doa10∆): 2.87 ± 0.083 | protein stability index (pdr5∆): 3.03 ± 0.085 | protein stability index (san1∆): 2.75 ± 0.1 | protein stability index (ubr1∆): 3.09 ± 0.06

VNETEAILYTKPGHVLQ [YGR119C/NUP57]
protein stability index (doa10∆): 3 ± 0.15 | protein stability index (pdr5∆): 3.12 ± 0.13 | protein stability index (san1∆): 2.75 ± 0.13 | protein stability index (ubr1∆): 3.66 ± 0.21

FEDATREQHIDTICQSI [SNF5]
protein stability index (doa10∆): 2.88 ± 0.1 | protein stability index (pdr5∆): 3.21 ± 0.15 | protein stability index (san1∆): 3.26 ± 0.066 | protein stability index (ubr1∆): 3.19 ± 0.08

DRFKPNLDIAKDLIRTD [MED4]
protein stability index (doa10∆): 3.38 ± 0.19 | protein stability index (pdr5∆): 3.34 ± 0.19 | protein stability index (san1∆): 2.82 ± 0.11 | protein stability index (ubr1∆): 2.96 ± 0.14

SVDIGVETILSGKARIC [FAS2]
protein stability index (doa10∆): 2.7 ± 0.12 | protein stability index (pdr5∆): 2.75 ± 0.11 | protein stability index (san1∆): 1.8 ± 0.12 | protein stability index (ubr1∆): 2.78 ± 0.069

NTGDGSISTYKDILNLA [ECM29]
protein stability index (doa10∆): 3.03 ± 0.083 | protein stability index (pdr5∆): 2.97 ± 0.11 | protein stability index (san1∆): 3.04 ± 0.081 | protein stability index (ubr1∆): 3.09 ± 0.079

ASSGPRYIVGVRNSVDR [RPT4]
protein stability index (doa10∆): 1.29 ± 0.12 | protein stability index (pdr5∆): 1.42 ± 0.19 | protein stability index (ubr1∆): 1.37 ± 0.092

GINKIPPKPRKVLQLLR [RPL7A]
protein stability index (doa10∆): 3.06 ± 0.087 | protein stability index (pdr5∆): 3.15 ± 0.11 | protein stability index (san1∆): 3.22 ± 0.061 | protein stability index (ubr1∆): 3.15 ± 0.069

LEFYKDKFFNEVNKSEL [SIR3]
protein stability index (doa10∆): 3.31 ± 0.066 | protein stability index (pdr5∆): 3.27 ± 0.058 | protein stability index (san1∆): 3.25 ± 0.043 | protein stability index (ubr1∆): 3.43 ± 0.064

EEQLDLLSAILDPSKSK [MED11]
protein stability index (doa10∆): 3.09 ± 0.099 | protein stability index (pdr5∆): 3.18 ± 0.12 | protein stability index (san1∆): 3.32 ± 0.11 | protein stability index (ubr1∆): 3.64 ± 0.2

GLESLLNIGLGAVGLKD [YCS4]
protein stability index (doa10∆): 2.77 ± 0.1 | protein stability index (pdr5∆): 2.61 ± 0.15 | protein stability index (san1∆): 2.89 ± 0.13 | protein stability index (ubr1∆): 2.68 ± 0.065

LFGAKPQNTTATTGGLF [YGR119C/NUP57]
protein stability index (doa10∆): 2.7 ± 0.084 | protein stability index (pdr5∆): 3.06 ± 0.076 | protein stability index (san1∆): 2.97 ± 0.12 | protein stability index (ubr1∆): 2.59 ± 0.089

DEIYIPINGNEAESQWY [CSI1]
protein stability index (doa10∆): 2.63 ± 0.065 | protein stability index (pdr5∆): 3.13 ± 0.06 | protein stability index (san1∆): 3.11 ± 0.07 | protein stability index (ubr1∆): 3.31 ± 0.064

ASTPSIRPDGRLPHQFR [RRP42]
protein stability index (doa10∆): 2.9 ± 0.14 | protein stability index (pdr5∆): 3.21 ± 0.12 | protein stability index (san1∆): 2.81 ± 0.19 | protein stability index (ubr1∆): 2.99 ± 0.089
